Four proteins from FireProtDB can be followed below.

“And” between values parts separate entries of the source, which are not always exact repeats. Equal values may be shown once.

For this data set the following is noted: whole UniProt chain shown; for Tm / unfolding enthalpy (van 't Hoff) / heat capacity change of unfolding / unfolding enthalpy (calorimetric): Thermal.
[1] abbreviates: Bacillus subtilis (strain 168), pH 7, CD, Potassium phosphate 50 mM, reversible: yes.
[2] abbreviates: Bos taurus, pH 2, 35 °C, Urea, NMR, Unknown, reversible: no.
[3] abbreviates: Bos taurus, pH 2.2, 25 °C, GdnHCl, CD, Sodium cacodylate 50 mM, NaCl 50 mM.
[4] abbreviates: Bos taurus, pH 3, DSC, Tris-HCl 10 mM.
[5] abbreviates: Bos taurus, pH 4.2, DSC, Tris-HCl 10 mM.
Where [6] appears, read: Bos taurus, pH 5.2, DSC, Tris-HCl 10 mM.
[7] abbreviates: Bos taurus, pH 6.2, DSC, citrate 10 mM.
Setting [8] is: Bos taurus, pH 6.3, 25 °C, GdnHCl, CD, Sodium acetate 100 mM, CaCl2 2 mM, transition: 3.
Where [9] appears, read: Bos taurus, pH 6.3, 25 °C, GdnHCl, CD, Sodium acetate 100 mM, CaCl2 2 mM.
The mark [10] stands for this setting: Bos taurus, pH 6.3, 25 °C, CD, imidazole-HCl 40 mM.
Setting [11] is: Bos taurus, pH 7, 4.5 °C, GdnHCl, CD, cacodylate 50 mM, NaCl 0.1 M.

B1: Phosphocarrier protein HPr wild type, P08877 (protein)
chain: MAQKTFKVTADSGIHARPATVLVQTASKYDADVNLEYNGKTVNLKSIMGVMSLGIAKGAEITISASGADENDALNALEETMKSEGLGE
Regarding B1, for the setting “Bacillus subtilis (strain 168), pH 7, 30 °C, Urea, CD, Potassium phosphate 50 mM, reversible: yes”, the “denaturant midpoint (higher = more stable)” value (from here on “denaturant midpoint”) came to 3.93 M. Under setting [1], the Tm was 73.6 °C and 77.5 °C; the “unfolding enthalpy (van 't Hoff)” value is 59 kcal/mol and 63 kcal/mol.

B2: Beta-glucanase wild type, K0A689 (protein)
chain: MKRVLLILVTGLFMSLFAVTSTASAQTGGSFFDPFNGYNSGFWQKADGYSNGNMFNCTWRANNVSMTSLGEMRLALTSPSYNKFDCGENRSVQTYGYGLYEVRMKPAKNTGIVSSFFTYTGPTDGTPWDEIDIEFLGKDTTKVQFNYYTNGAGNHEKIVDLGFDAANAYHTYAFDWQPNSIKWYVDGQLKHTATNQIPTTPGKIMMNLWNGTGVDEWLGSYNGVNPLYAHYDWVRYTKK
Consider B2, for which the midpoint of thermal melting (Tm) (Bacillus tequilensis, pH 6.5, Activity, phosphate buffer) worked out at 62 °C.

B3: Alpha-lactalbumin wild type, P00711 (protein)
chain: MMSFVSLLLVGILFHATQAEQLTKCEVFRELKDLKGYGGVSLPEWVCTTFHTSGYDTQAIVQNNDSTEYGLFQINNKIWCKDDQNPHSSNICNISCDKFLDDDLTDDIMCVKKILDKVGINYWLAHKALCSEKLDQWLCEKL
Regarding B3, the denaturant m value under setting [2] turned out to be 0.33 kcal/mol/M; the denaturant m value under setting [3] is 0.76 kcal/mol/M; the denaturant m value under setting [8] was 1.85 kcal/mol/M; the denaturant m value under setting [9] turned out to be 2.6 kcal/mol/M; the denaturant m value under setting [11] was 2.27 kcal/mol/M; the denaturant m value (Bos taurus, pH 7, 25 °C, GdnHCl, CD, sodium cacodylate 50 mM, NaCl 50 mM, transition: 3) is 1.79 kcal/mol/M and 0.64 kcal/mol/M. Moreover, the “denaturant midpoint” value was determined as 4.45 M under setting [2] and 3.16 M under setting [3]. For the same protein, the unfolding free energy was determined as 1.46 kcal/mol under setting [2]; 2.41 kcal/mol under setting [3]; 4.61 kcal/mol under setting [8]; 6.21 kcal/mol under setting [9]; 6.5 kcal/mol (Bos taurus, pH 6.65, 25 °C, GdnHCl, CD, potassium phosphate 0.01-0.03 M, KCl 0.1 M, reversible: yes); 3.66 kcal/mol under setting [11]. Further, the Tm under setting [4] was 29.6 °C, the Tm under setting [5] is 56.9 °C, the Tm under setting [6] amounted to 62.8 °C and the Tm under setting [7] stood at 51.2 °C. In addition, the “heat capacity change of unfolding” value is, setting by setting: under setting [4], 0.93 kcal/mol/K; under setting [5], 1.17 kcal/mol/K; under setting [6], 1.26 kcal/mol/K; under setting [7], 1.61 kcal/mol/K; under setting [10], 0.96 kcal/mol/K; (Bos taurus, pH 6.8, 25 °C, CD, phosphate 10-20 mM, KCl 0.1 M) 1.49 kcal/mol/K. In addition, the “unfolding enthalpy (calorimetric)” value reads like this: under setting [4], 36.1 kcal/mol; under setting [5], 64.5 kcal/mol; under setting [6], 71.9 kcal/mol; under setting [7], 59.1 kcal/mol. Also, the “unfolding enthalpy (van 't Hoff)” value under setting [7] was found to be 61.5 kcal/mol and the “unfolding enthalpy (van 't Hoff)” value under setting [10] was determined as 31.1 kcal/mol.

B4: wild type, B8YLY0 (protein)
chain: MKKVLMAFIICLSLILSVLAAPPSGAKAESVHNPVVLVHGISGASYNFFAIKNYLISQGWQSNKLYAIDFYDKTGNNLNNGPQLASYVDRVLKETGAKKVDIVAHSMGGANTLYYIKYLGGGNKIQNVVTLGGANGLVSSTALPGTDPNQKILYTSIYSLNDQIVINSLSRLQGARNIQLYGIGHIGLLSNSQVNGYIKEGLNGGGLNTN
For the protein B4, the “denaturant midpoint” value is 3 M (Bacillus subtilis, pH 0.8, 25 °C, GdnHCl, CD, KCl-HCl 20 mM, reversible: No); 2.6 M (Bacillus subtilis, pH 0.8, 25 °C, GdnHCl, Fluorescence, KCl-HCl 20 mM, reversible: No); 1 M (Bacillus subtilis, pH 7, 25 °C, GdnHCl, CD, Sodium phosphate 20 mM, reversible: Yes); 0.8 M (Bacillus subtilis, pH 7, 25 °C, GdnHCl, Fluorescence, Sodium phosphate 20 mM, reversible: Yes). In addition, the Tm is, setting by setting: (Bacillus subtilis, pH 0.8, CD, KCl-HCl 20 mM, reversible: No) 75 °C; (Bacillus subtilis, pH 4, Fluorescence, Sodium acetate 50 mM, reversible: Yes) 45 °C; (Bacillus subtilis, pH 5.8, DSC, NaAc 20 mM, reversible: No) 53 °C; (Bacillus subtilis, pH 6, CD, phosphate buffer 20 mM) 54.6 °C; (Bacillus subtilis, pH 7, CD, Sodium phosphate 20 mM, reversible: No) 47 °C. The unfolding free energy runs as follows: (Bacillus subtilis, pH 5.8, 25 °C, Urea, Fluorescence, NaAc 20 mM, reversible: Yes) 11.2 kcal/mol; (Bacillus subtilis, pH 5.8, 25 °C, Urea, NMR, NaAc 20 mM, reversible: Yes) 9.56 kcal/mol; (Bacillus subtilis, pH 7, 25 °C, Urea, Fluorescence, Sodium acetate 50 mM, reversible: Yes) 11.4 kcal/mol; (Bacillus subtilis, pH 7.2, 25 °C, GdnHCl, CD, Sodium phosphate 50 mM, reversible: Yes) 11.4 kcal/mol and 13.8 kcal/mol.
